Test results: patent US20120230999A1 (ARIZONA BOARD OF REGENTS A BODY CORPORATE OF THE STATE OF …, published 2012)
The star is where a group is joined. DABCYL = CN(C)c1ccc(/N=N/c2ccc(C(=O)*)cc2)cc1; EDANS = O=S(=O)(O)c1cccc2c(NCCN*)cccc12

T1: internally quenched fluorogenic α-secretase substrate … (SMILES …)
T1 peptide: Ac-RE(EDANS)VHHQKLVFK(DABCYL)R-OH


Legend:
[1] = target: T1, internally quenched fluorogenic …; assay: cell-based or functional assay
[2] = target: T1, internally quenched fluorogenic …; assay: cell-based or functional assay

Row | specificity constant (kcat/KM) relative to parent ASec-1 scFv [1] [fold] | kcat (per min), hydrolysis of α-secretase Aβ fluorogenic substrate [2] [per min] | kcat/Km (µM/min), hydrolysis of α-secretase Aβ fluorogenic substrate [2] [µM/min] | Binder
1 | 2.8 | 61 | 40.4 | ASec-1B scFv (scFv) scFv: DVLMETTQTPLTLSVTIGQPASISCKSSQSLLHTDGKTYLIWLLQRPGQSPKRLIYLVSKLDSGVPDRFTGSGSGTDFTLKISRVEAEDLGVYYCWQGTHFPQTFGGGTKLEIKRADAAPGGGGSGGGGSGGGGSGSESGGGLVKPGGSLKLSCAASGFAFSIYGMETSWFRQTPEKRLEWVATISGGDTYTYYPDSVKGRFTISRDNAKNNLFLQMETSSLRSEDTPLYFCGRSQKLHPWGQGLVTVSA
2 | 5.6 | 34.8 | 58.1 | ASec-1A scFv (scFv) scFv: DVLMETTQTPLTLSVTIGQPASISCKSSQSLLHTDGKTYLIWLLQRPGQSPKRLIYLVSKLDSGVPDRFTGSGSGTDFTLKISRVEAEDLGVYYCWQGTHFPQTFGGGTKLEIKRADAAPGGGGSGGGGSGGGGSGSESGGGLVKPGGSLKLSCAASGFTFSIYGMETFWFRQTPEKRLEWVATISGGDTYTYYPDSVKGRFTISRDNAKNNLFLQMETSSLRSEDTPLYFCGRNHQITMETWGQGTLVTVSA
